The record followed here is article PMC9271601 (Structure (London, England : 1993), 2022).

Test [1] deals with H7 (SH13) HA probe (Influenza A virus A/Shanghai/02/2013 …, UniProt R4NN21, strain, biotin (biotin protein ligase, AviTag)). The test is described as follows: flow cytometry on cells. On the technique in general: A flow cytometer gives signals particle by particle.
Test [2] addresses H9N2 A/Hong Kong/1073/99 hemagglutinin trimer, wild type (Influenza A virus A/Hong Kong/1073/99 …, UniProt Q9ICY5, strain). The test is described as follows: BLI. Background: Biolayer interferometry detects binding as a change in optical thickness at a sensor tip.

B1: 1D12 B cell receptor on the donor's B cell (antibody, V domains shown)
VH: QLVQSGAEVKKPGASVKVSCKASGYTFTGYYLHWVRQAPGQGLEWMGRINPDTGGTNYAQKFQGRVSMTRDMSISTHYMELSRLTSDDTAVYYCATKRGAVTAMVYYYFYGMDVWGQGTTVTVSS
VL: DIVMTQSPLSLSVTPGEPASISCRSSHSLLHLNGYNYLDWYLQKPGQSPQLLIYLGSNRASGVPDRFSGSGSGTDFTLKISRVEAEDVGIYYCMQALRTPPGLTFGGGTKVDIK
On to B1, for which, in test [1], the binding result is recorded as “binds”.

B2: 315–19-1D12 Fab (Fab, V domains shown)
VH: QLVQSGAEVKKPGASVKVSCKASGYTFTGYYLHWVRQAPGQGLEWMGRINPDTGGTNYAQKFQGRVSMTRDMSISTHYMELSRLTSDDTAVYYCATKRGAVTAMVYYYFYGMDVWGQGTTVTVSS
VL: DIVMTQSPLSLSVTPGEPASISCRSSHSLLHLNGYNYLDWYLQKPGQSPQLLIYLGSNRASGVPDRFSGSGSGTDFTLKISRVEAEDVGIYYCMQALRTPPGLTFGGGTKVDIK
With B2, the binding result in test [2] is recorded as “binds”.
